# Measured values from patent US20200238197A1.
# Key:
# [1] = target: Polyclonal human IgG Gammanorm; assay: Binder coupled to Praesto Pure45 agarose beads. Mass of injected polyclonal hIgG (Gammanorm) at 10% breakthrough, 6 min residence time (Example 10).
# human IgG1 = assay: ELISA, IgG1 antibody coated on plate, detection with Strep-Tactin-HRP
Substance,dynamic binding capacity [1] [mg/mL],Kd (human IgG1) [nM]
R PROTEIN A,37.4,
Staphylococcus aureus Protein A domain B,,3.1
